For assay [1], the target named is iC3b (UniProt P01024). In words: SPR; C3b deposited on a CM5 chip (amine-coupled seed, then convertase-mediated deposition to about 5000 RU), iC3b and C3dg made from it on the chip; αI domains injected as dilution series, 120 s; Biacore T200, 25 °C; HBST (10 mM HEPES, 150 mM NaCl, 0.005% Tween-20, pH 7.4) with 1 mM MgCl2; Langmuir 1:1 fit, KD calculated.
Assay [2] deals with iC3b (UniProt P01024). In words: SPR; competitive: αI domains at 5 µM preincubated with simvastatin (3-100 µM), injected over immobilised iC3b or ICAM-1; HBST with 1 mM MgCl2 and 5% DMSO; signal as percent of the non-inhibited signal. Background: In SPR one partner is held on a chip, and binding of the other changes the refractive index at the surface.

Residue numbers refer to the chain shown, from its start. In names and notes the source's numbering stands.

B1: CR4 αXI domain, wild type (WT) (domain or fragment)
chain: QEQDIVFLIDGSGSISSRNFATMMNFVRAVISQFQRPSTQFSLMQFSNKFQTHFTFEEFRRSSNPLSLLASVHQLQGFTYTATAIQNVVHRLFHASYGARRDAAKILIVITDGKKEGDSLDYKDVIPMADAAGIIRYAIGVGLAFQNRNSWKELNDIASKPSQEHIFKVEDFDALKDIQNQLKEKIFAI
Consider B1, for which the Kd (as a rule, the equilibrium constant for the complex coming apart) in assay [1] was 33 µM.

B2: CR4 αXI domain, high-affinity (HA) variant p.I333G (domain or fragment)
chain: B1 chain with I186G
B2: in assay [1], the dissociation constant (Kd) is 2.6 µM. The residual binding activity with simvastatin (percent of the non-inhibited signal) in assay [2] stood at 63%.

These data come from publication PMC11853025.
